Data set [1] concerns the molecule itself. Nature of the data set: SEC; propensity of purified recombinant rat TrxR1 variants to form oligomers (Supplementary Figure S8); oligomers separated on Superdex G200 at 4 °C.
Data set [2] concerns the molecule itself. Kind of data set: native gel or EMSA; purified recombinant TrxR1 tetramers, native PAGE under oxidized (non-reducing) conditions; dimers to tetramer. For orientation: In EMSA bound probe runs differently from free probe, usually more slowly.
Data set [3] concerns the molecule itself. Nature of the data set: native gel or EMSA; purified recombinant TrxR1 tetramers, native PAGE under reducing conditions.

Substitutions are numbered along the chain they refer to.

B1: recombinant rat TrxR1 W114E (enzyme)
chain: MNDSKDAPKSYDFDLIIIGGGSGGLAAAKEAAKFDKKVMVLDFVTPTPLGTRWGLGGTCVNVGCIPKKLMHQAALLGQALKDSRNYGWKLEDTVKHDWEKMTESVQNHIGSLNEGYRVALREKKVVYENAYGKFIGPHKIMATNNKGKEKVYSAERFLIATGERPRYLGIPGDKEYCISSDDLFSLPYCPGKTLVVGASYVALECAGFLAGIGLDVTVMVRSILLRGFDQDMANKIGEHMEEHGIKFIRQFVPTKIEQIEAGTPGRLKVTAKSTNSEETIEDEFNTVLLAVGRDSCTRTIGLETVGVKINEKTGKIPVTDEEQTNVPYIYAIGDILEGKLELTPVAIQAGRLLAQRLYGGSTVKCDYDNVPTTVFTPLEYGCCGLSEEKAVEKFGEENIEVYHSFFWPLEWTVPSRDNNKCYAKVICNLKDNERVVGFHVLGPNAGEVTQGFAAALKCGLTKQQLDSTIGIHPVCAEIFTTLSVTKRSGGDILQSGCUG
modifications: selenocysteine (Sec, U) at 498
notes: thioredoxin reductase 1, rat, with Trp114 changed to Glu; also called Glu114; source: E. coli BL21 (DE3) gor-, purified (2'5'-ADP Sepharose, Superdex G200 size exclusion)
As to B1, the binding result in data set [1] was “binds”.

B2: recombinant rat TrxR1 W114G (enzyme)
chain: B1 chain with E114G
modifications: selenocysteine (Sec, U) at 498
notes: thioredoxin reductase 1, rat, with Trp114 changed to Gly; also called Gly114; source: E. coli BL21 (DE3) gor-, purified (2'5'-ADP Sepharose, Superdex G200 size exclusion)
Consider B2, for which, in data set [1], the binding result is given as “binds”.

B3: recombinant rat thioredoxin reductase 1 (TrxR1), wild type (enzyme)
chain: B1 chain with E114W
modifications: selenocysteine (Sec, U) at 498
notes: thioredoxin reductase 1, rat, expressed from a pET-TRSTER-derived plasmid with pSUABC; FAD-containing homodimer; tetramers (two dimers) were purified from the same preparation in the absence of reductant; In the tetramer two of the four Trp114 are modified (oxidised) and linked; also called WT; wild-type TrxR1; source: E. coli BL21 (DE3) gor-, purified (2'5'-ADP Sepharose, Superdex G200 size …)
One may read the stoichiometry N as the number of molecules, sites or subunits per partner or assembly. As for B3, the figures for the “stoichiometry N” value in data set [2] and in data set [3] were 4 and 2, respectively.

B4: recombinant rat TrxR1 W114F (enzyme)
chain: B1 chain with E114F
modifications: selenocysteine (Sec, U) at 498
notes: thioredoxin reductase 1, rat, with Trp114 changed to Phe; also called Phe114; source: E. coli BL21 (DE3) gor-, purified (2'5'-ADP Sepharose, Superdex G200 size exclusion)
As for B4, in data set [1], the binding result is recorded as “binds”.

B5: recombinant rat TrxR1 W114R (enzyme)
chain: B1 chain with E114R
modifications: selenocysteine (Sec, U) at 498
notes: thioredoxin reductase 1, rat, with Trp114 changed to Arg; also called Arg114; source: E. coli BL21 (DE3) gor-, purified (2'5'-ADP Sepharose, Superdex G200 size exclusion)
On to B5, for which the binding result in data set [1] was “binds”.

Source of the values: PMC4669772, “The conserved Trp114 residue of thioredoxin reductase 1 has a redox sensor-like function triggering oligomerization and crosslinking upon oxidative stress related to cell death” (Cell Death & Disease, 2015).
